B1: EstCE1: recombinant enzyme having carboxyl esterase activity, amino acid sequence SEQ ID NO: 4, family VIII of bacterial lipolytic enzymes (protein)
chain: MSIADQSLAKRVQGVSQQAIDEGRIVGSVVLIARHGRVIYANASGYADREQKKPMVRETQFRLSSVSKPYITLAAMRMIEQQKLGLDDTVSRWLPWFTPALADGVRPPIKIRHLLSHTAGLDYRLSQPAEGPYHRLGIKDGMELSSLTLEQNLRLLAQADLLAEPGSEFRYSLAIDVLGAVLEQVAGEPLPQVFNHWVAQPLGLRNTGFYTTDVDNLATAYHDTAAEPEPIRDGMLLTLPEGFGFEIELAPSRALDAQAYPSGGAGMVGDADDVLQLVETLRTGKEGILQPATAALMRQAHVGSHAETQGPGWGFGFGGAVLEDAQLAATPQHNGTLQWGGVYGHSWFYDPQAAISVVALTNTAFEGMSGRYPLQIRDAVYGTNEPTR
modifications: metagenomic sequence
B2: EstA3: recombinant enzyme having carboxyl esterase activity, amino acid sequence SEQ ID NO: 2, family VIII of bacterial lipolytic enzymes (protein)
chain: MSAEELGFLPDRLARISDHIQTNYLDNGKLPFASLLIGRGDDIALQWSSGVADDAIFRIASMTKPVTSVAFMQLVEQGKVALTDPVAKYIPEFAKLGVFVAGGGNIPFVSRPPTMPMRIVDVLRHTTGFTYSFQERSNIDAAYRKTDVESWTRSTSQSFIDTLAEIPLEFDPGTQWNYSVSTDVLGILIERISGQSLPDYFRDHIFAPLGMVDTCFTVPADKAARIPQCFAFDPATKMKLFDEAGASSLWTKGWSFNSGGGGLASSVADYHRFCRMLLNGGALDGIQIISPKTLELMTANHLPGGQDLTQMSKSLFSEAEMAGIGFGLGFATTIDSVATLTPCSTGDFYWGGMYSTAFFVDPVEDIIMIFMTQLMPSSTYPVRREIKTMIYSALAA
modifications: metagenomic sequence

Assays:
[1] = Enantioselectivity, GC analysis of hydrolysis of acetic acid esters; type: biochemical; settings: for conversion %: ^2 only complete conversion could be measured
Experimental: To assay the activity of the enzymes on a range of acetic acid esters gas chromatography was used. The samples were analyzed for the production of chiral alcohols by the gas chromatograph GC-17A (Shimadzu, Duisburg, Germany) equipped with FID detector and CP-Chirasil-DEX CB (Chrompack (Middelburg, Netherlands), 25 m×0.25 mm ID) at a helium flow of 1.3 ml/min. The temperature programme included: 5 min at 60° C., followed by an increase of 5° C. per min until 190° C. was reached. For the GC analysis, activity-tests were run in 1 M Tris buffered solutions and using 10 mM substrates dissolved in DMSO as 0.1 M stock solutions. 2 μg of the enzyme were added and tests incubated over night before the corresponding alcohols could be extracted by treatment with acetic acid ethyl ester and analyzed by GC.

[2] = Enzyme activity fingerprinting with substrate cocktails; type: biochemical; settings: substrate 7-(3-octylcarboxy-(3-hydroxy-3-methyl-butyloxy))-coumarine; fingerprint analysis, 15 μM, 30 min
Experimental: The enzyme activity fingerprinting used 10 substrates and was carried out as described previously. The assay conditions were 75% PBS buffer at pH 7.4, 25% DMSO and 0.0025% SDS. Each substrate was present in the cocktail at 15 μM, the total concentration of the substrate cocktail was 150 μM. EstA3 was added at a concentration of 0.75 mg/L and EstCE1 at 0.2075 mg/L. The reaction time was 30 min. The chemical background was measured by recording the products observed under the same assay conditions after a 5 day incubation in the absence of the enzyme. The blank value was taken from the reaction after 30 min incubation in the absence of the enzyme.

[3] = acetic acid ester of R-(+)-3-chlor-1-phenyl-1-propanol
[4] = acetic acid ester of rac-1-octin-3-ol
[5] = acetic acid ester of trimethylsilylbutinol
[6] = substrate Acetic acid ester of tetrahydronaphthylamin
[7] = substrate acetic acid ester of (+/−)-1-octin-3-ol
[8] = substrate acetic acid ester of (+/−)-1-octin-3-ol, 10 mM, over night
[9] = substrate acetic acid ester of R-(+)-3-chlor-1-phenyl-1-propanol
[10] = substrate acetic acid ester of cis-1,2-cyclohexandiol, values marked ^1: substrate conversion after 12 h
[11] = substrate acetic acid ester of phenylethylamin
[12] = substrate acetic acid ester of trans-1,2-cyclohexandiol
[13] = substrate acetic acid ester of trans-1,2-cyclohexandiol, in text: conversion of the preferred enantiomer
[14] = substrate acetic acid ester of trimethylsilylbutinol
[15] = substrate cis-3,5-diacetoxy-1-cyclopenten
[16] = substrate cis-3,5-diacetoxy-1-cyclopenten, conversion for the preferred enantiomer
[17] = substrate isopropylidenglycerolacetate (rac.), values marked ^1: substrate conversion after 12 h
[18] = substrate menthylacetate, 1. enantiomer (+)
[19] = substrate menthylacetate, 2.e. (−)

Molecule | hydrolysis, in words [1, 3] | hydrolysis, in words [1, 4] | hydrolysis, in words [1, 5] | conversion % of 1.e [1, 6] [%] | conversion % of 2.e [1, 6] [%] | ee % [1, 7] [%] | conversion % of 1.e [1, 8] [%] | conversion % of 2.e [1, 8] [%] | conversion % [1, 9] | conversion % of 1.e [1, 10] | conversion % of 2.e [1, 10] | conversion % of 1.e [1, 11] [%] | conversion % of 2.e [1, 11] [%] | conversion % of 2.e [1, 12] [%] | conversion % of 1.e [1, 13] [%] | conversion % [1, 14] | conversion % of 2.e [1, 15] [%] | ee % [1, 15] [%] | conversion % of 1.e [1, 16] [%] | conversion % of 1.e [1, 17] | other results
B1 | capable of hydrolyzing | capable of hydrolyzing | capable of hydrolyzing | 0 | 0 | 3 | 64 | 60 | 100^2% | 100^1% | 100^1% | 0 | 0 | 45 | 100 | 100^2% | 59 | 66 | 12 | 100^1% | conversion, in words ([1]; acetic acid ester of cis-1,2-cyclohexanediol): capable of converting; conversion, in words ([1]; acetic acid ester of isopropylidene glycerol): capable of converting; ee % ([1]; substrate acetic acid ester of cis-1,2-cyclohexandiol): 0%; ee % [1, 12]: 38%; ee % ([1]; substrate isopropylidenglycerolacetate (rac.)): 0%; conversion % of 2.e [1, 17]: 100^1%; ee % ([1]; substrate menthylacetate (rac), for the (+)-enantiomer): 100%; conversion % of 1.e [1, 18]: 100%; conversion % of 2.e [1, 19]: 0%
B2 | capable of hydrolyzing | capable of hydrolyzing | capable of hydrolyzing | 0 | 0 | 12 | 24 | 18 | 6^2% | 0% | 0% | 0 | 0 | 0 | 0 | 45^2% | 0 | 100 | 24 | 0% | conversion % of 2.e [1, 17]: 0%; conversion % of 1.e [1, 18]: 0%; conversion % of 2.e [1, 19]: 0%; conversion of secondary ester, in words [2]: able to convert

From US8956838B2, “Carboxyl esterase polypeptides” (B.R.A.I.N., priority 2006, dated 2015)
